From PMC4255732, “Structural and functional consequences of removing the N-terminal domain from the magnesium chelatase ChlH subunit of Thermosynechococcus elongatus” (Biochemical Journal, 2014)

Key:
MgCH (WT ChlH–I–D) = molecular target: T1, MgCH (WT ChlH–I–D) (Thermosynechococcus vestitus, UniProt Q8DM52); experiment: continuous fluorescence assay of MgDIX formation at […] nm; type: biochemical; conditions: 8 μM DIX, 5 mM ATP, 15 mM MgCl2, 50 mM Mops/KOH pH 7.7, 45 °C, without Gun4
T1 construct: with Magnesium-chelatase subunit ChlI; Magnesium-chelatase subunit ChlD
T1 sequence (Q8DM52 1-1326): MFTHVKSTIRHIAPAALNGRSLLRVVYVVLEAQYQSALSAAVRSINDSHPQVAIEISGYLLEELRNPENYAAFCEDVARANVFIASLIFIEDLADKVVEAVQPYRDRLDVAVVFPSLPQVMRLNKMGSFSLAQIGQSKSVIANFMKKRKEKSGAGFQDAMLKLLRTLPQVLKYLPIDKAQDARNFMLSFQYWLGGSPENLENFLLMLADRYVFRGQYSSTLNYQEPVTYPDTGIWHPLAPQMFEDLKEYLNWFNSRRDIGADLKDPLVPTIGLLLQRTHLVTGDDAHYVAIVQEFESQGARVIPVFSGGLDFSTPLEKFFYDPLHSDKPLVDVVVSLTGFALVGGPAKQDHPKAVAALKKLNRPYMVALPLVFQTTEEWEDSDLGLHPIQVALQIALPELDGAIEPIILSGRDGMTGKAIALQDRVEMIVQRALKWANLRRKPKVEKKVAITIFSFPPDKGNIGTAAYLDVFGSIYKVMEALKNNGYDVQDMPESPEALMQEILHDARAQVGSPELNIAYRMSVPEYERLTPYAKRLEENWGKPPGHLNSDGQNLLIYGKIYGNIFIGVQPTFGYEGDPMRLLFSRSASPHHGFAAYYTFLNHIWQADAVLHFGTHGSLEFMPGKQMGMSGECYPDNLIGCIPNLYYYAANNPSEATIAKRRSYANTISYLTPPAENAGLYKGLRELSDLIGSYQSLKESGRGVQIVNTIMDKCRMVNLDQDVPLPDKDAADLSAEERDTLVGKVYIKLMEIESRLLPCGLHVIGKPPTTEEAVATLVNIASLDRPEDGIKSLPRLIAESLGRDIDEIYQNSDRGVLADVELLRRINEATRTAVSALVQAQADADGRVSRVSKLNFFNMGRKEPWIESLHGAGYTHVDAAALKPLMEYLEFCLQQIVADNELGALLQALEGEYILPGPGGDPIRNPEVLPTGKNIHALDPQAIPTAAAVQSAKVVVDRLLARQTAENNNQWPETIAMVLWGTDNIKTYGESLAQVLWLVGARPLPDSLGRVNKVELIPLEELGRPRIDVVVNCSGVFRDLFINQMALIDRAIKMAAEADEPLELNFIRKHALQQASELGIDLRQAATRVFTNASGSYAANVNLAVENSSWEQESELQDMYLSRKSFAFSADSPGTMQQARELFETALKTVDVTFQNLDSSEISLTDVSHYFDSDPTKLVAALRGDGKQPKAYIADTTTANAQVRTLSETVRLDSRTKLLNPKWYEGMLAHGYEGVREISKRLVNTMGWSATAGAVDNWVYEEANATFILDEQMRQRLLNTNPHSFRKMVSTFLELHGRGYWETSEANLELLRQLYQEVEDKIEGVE
T1 sequence (Q8DIS0 13-367 partner): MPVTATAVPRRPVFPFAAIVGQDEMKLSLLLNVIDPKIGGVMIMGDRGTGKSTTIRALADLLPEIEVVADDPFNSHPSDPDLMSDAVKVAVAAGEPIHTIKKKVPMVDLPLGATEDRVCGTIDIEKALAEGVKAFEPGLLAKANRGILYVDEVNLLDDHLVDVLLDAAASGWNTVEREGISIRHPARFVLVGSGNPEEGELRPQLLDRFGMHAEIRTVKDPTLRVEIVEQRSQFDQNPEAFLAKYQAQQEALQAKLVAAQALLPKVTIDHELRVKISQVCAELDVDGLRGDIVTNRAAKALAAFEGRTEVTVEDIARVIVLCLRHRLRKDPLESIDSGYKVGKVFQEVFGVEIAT
T1 sequence (Q8DJ18 1-668 partner): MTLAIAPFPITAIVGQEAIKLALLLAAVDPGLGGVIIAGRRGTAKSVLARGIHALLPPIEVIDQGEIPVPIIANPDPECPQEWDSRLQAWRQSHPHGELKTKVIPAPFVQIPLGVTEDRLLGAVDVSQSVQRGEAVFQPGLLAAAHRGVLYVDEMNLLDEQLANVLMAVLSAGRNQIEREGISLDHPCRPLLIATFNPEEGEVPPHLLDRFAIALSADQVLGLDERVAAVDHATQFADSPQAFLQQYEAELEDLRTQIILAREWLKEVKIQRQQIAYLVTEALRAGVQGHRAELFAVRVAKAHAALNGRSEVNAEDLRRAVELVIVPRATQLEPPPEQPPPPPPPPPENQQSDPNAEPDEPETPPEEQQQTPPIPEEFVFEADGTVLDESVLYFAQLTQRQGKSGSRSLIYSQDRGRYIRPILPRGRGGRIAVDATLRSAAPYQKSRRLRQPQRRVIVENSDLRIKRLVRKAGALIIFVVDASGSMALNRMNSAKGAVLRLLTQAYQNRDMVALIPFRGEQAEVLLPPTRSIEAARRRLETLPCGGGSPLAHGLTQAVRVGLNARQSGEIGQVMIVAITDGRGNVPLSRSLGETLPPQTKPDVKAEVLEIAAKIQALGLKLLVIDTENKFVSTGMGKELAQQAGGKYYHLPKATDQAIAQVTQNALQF

ΔN159ChlH = molecular target: T2, ΔN159ChlH (Thermosynechococcus vestitus, UniProt Q8DM52); experiment: tryptophan fluorescence quenching; type: binding
T2 construct: gene chlH; N-terminal head domain and linker (159 residues) deleted, starts at Met160; His6-tagged (pET9aHis6); E. coli; about 130 kDa
T2 sequence (Q8DM52 entry or part of it, stated change not applied): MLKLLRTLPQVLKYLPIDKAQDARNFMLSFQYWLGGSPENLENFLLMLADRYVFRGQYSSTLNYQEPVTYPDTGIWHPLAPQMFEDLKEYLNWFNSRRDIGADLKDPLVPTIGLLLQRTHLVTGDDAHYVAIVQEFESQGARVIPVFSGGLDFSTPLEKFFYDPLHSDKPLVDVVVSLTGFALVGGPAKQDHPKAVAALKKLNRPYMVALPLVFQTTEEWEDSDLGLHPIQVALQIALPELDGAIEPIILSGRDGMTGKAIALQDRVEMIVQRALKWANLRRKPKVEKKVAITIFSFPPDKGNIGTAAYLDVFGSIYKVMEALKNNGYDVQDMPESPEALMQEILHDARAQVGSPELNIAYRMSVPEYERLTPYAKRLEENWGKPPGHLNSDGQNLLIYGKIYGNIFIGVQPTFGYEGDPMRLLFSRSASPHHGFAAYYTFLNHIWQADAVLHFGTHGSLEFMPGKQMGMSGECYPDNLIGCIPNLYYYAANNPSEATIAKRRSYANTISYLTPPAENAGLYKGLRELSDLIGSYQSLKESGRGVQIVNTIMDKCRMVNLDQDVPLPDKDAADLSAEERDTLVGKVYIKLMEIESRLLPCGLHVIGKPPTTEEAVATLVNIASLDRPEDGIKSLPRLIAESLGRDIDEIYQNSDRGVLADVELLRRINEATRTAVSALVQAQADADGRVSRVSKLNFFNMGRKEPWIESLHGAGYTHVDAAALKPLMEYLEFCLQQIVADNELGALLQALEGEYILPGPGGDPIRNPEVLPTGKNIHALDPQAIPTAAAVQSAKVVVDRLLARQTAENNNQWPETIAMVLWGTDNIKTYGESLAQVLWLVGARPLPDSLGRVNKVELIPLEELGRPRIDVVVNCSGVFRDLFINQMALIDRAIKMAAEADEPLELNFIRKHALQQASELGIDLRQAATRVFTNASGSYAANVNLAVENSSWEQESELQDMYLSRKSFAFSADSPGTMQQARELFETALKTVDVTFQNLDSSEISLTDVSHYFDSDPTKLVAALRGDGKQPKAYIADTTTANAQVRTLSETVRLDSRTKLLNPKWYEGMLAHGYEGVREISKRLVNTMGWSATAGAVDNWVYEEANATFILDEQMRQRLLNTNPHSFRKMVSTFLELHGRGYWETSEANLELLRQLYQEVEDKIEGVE

[1] = molecular target: ΔN159ChlH, N-terminally truncated ChlH subunit of Thermosynechococcus elongatus (Thermosynechococcus elongatus); experiment: FRET or BRET; 0.1 μM ChlH (WT or ΔN159) labelled with Atto 488, titrated with Gun4 labelled with Alexa Fluor 532; quenching of emission at 524 nm; 50 mM Tricine/NaOH, 0.3 M glycerol, 200 mM NaCl, pH 7.7 (methods; the legend says 7.9), 45°C; apparent Kd from eqn (1)
[2] = molecular target: magnesium chelatase ChlH subunit of Thermosynechococcus elongatus, wild type (Thermosynechococcus elongatus); experiment: as above
[3] = molecular target: ΔN159ChlH, N-terminally truncated ChlH subunit of Thermosynechococcus elongatus (Thermosynechococcus elongatus)
[4] = molecular target: magnesium chelatase ChlH subunit of Thermosynechococcus elongatus, wild type (Thermosynechococcus elongatus)

Compound | continuous fluorescence assay of MgDIX formation at 580 nm (MgCH (WT ChlH–I–D)) | Kd (ΔN159ChlH) | Kd [1] | Kd [2] | Kapp from steady-state magnesium chelatase rates against [Gun4] (0.1 μM ChlD, 0.2 μM ChlI, 0.4 μM ΔN159ChlH, 45°C, eqn (2), nd held at 0.4) [3] | Kapp from steady-state magnesium chelatase rates against [Gun4] (0.1 μM ChlD, 0.2 μM ChlI, 0.4 μM ChlH, 45°C, eqn (2), nd held at 0.4) [4]
CC1=C(CCC(=O)O)c2cc3nc(cc4[nH]c(cc4C)cc4[nH]c(cc1n2)cc4C)C(C)=C3CCC(=O)O [DIX] | assayed for in vitro MgCH activity by continuously monitoring fluorescence from the MgDIX product | 1060 ± 90 nM | – | – | – | –
Gun4 protein of Thermosynechococcus elongatus (natural protein) | – | – | 16 nM | 9 nM | 0.05 µM | 0.39 µM
